Measurements published in the supplement of paper PMC7877785.
± gives the uncertainty stated by the source.

Experiment: self-splicing fitness, log relative to wild type (ln ratio); higher = more splicing; Tetrahymena group I intron in knt gene, E. coli kanamycin selection, DiMSum; sequences stand for … in CUCUCU…GGAGGGAAAAGUUAUCAGGCAUGCACCUGGUAGCUAGUCUUUAAACCAAUAGAUUGCAUCGGUUUAAAAGGCAAGACCGUCAAAUUGCGGGAAAGGGGUCAACAGCCGUUCAGUACCAAGUCUCAGGGGAAACUUUGAGAUGGCCUUGCAAAGGGUAUGGUAAUAAGCUGACGGACAUGGUCCUAACCACGCAGCCAAGUCCUAAGUCAACAGAUCUUCUGUUGAUAUGGAUGCAGUUCACAGACUAAAUGUCGGUCGGGGAAGAUGUAUUCUUCUCAUAAGAUAUAGUCGGACCUCUCCUUAAUGGGAGCUAGCGGAUGAAGUGAUGCAACACUGGAGCCGCUGGGAACUAAUUUGUAUGCGAAAGUAUAUUGAUUAGUUUUGGAGUACUCGUGGUCG
In short: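 Library with all eight P1ex-region intron nucleotides randomised, intron inside the knt kanamycin-resistance gene on pET-22b(+), in E. coli BL21(DE3). Cells grew overnight at 37°C or 30°C on LB agar with or without 25 μg/mL kanamycin (plus 100 μg/mL carbenicillin, 50 μM IPTG, 0.2% rhamnose), in six replicate transformations. Pooled colonies were amplicon-sequenced on Illumina HiSeq 2500. DiMSum fitness is the error-weighted combination of wild-type-normalised replicate fold changes, kanamycin versus none.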

Sequence	self-splicing fitness (ln) (30 °C)	self-splicing fitness (ln) (37 °C)
UAGGAGCAAUAUUACGGCUC	-2.64 ± 0.24	
UAGGAGCAAUAUUACGGGCG	-2.73 ± 0.19	-2.58 ± 0.23
UAGGAGCAAUAUUACGGGCU	-3.12 ± 0.48	-1.64 ± 0.4
UAGGAGCAAUAUUACGGUAG	-3.52 ± 0.17	-1.56 ± 0.13
UAGGAGCAAUAUUACGUACC	-2.66 ± 0.32	-2.69 ± 0.43
UAGGAGCAAUAUUACGUAUC	-1.71 ± 0.2	
UAGGAGCAAUAUUACGUCGU	-1.72 ± 0.28	-1.86 ± 0.35
UAGGAGCAAUAUUACGUGCA	-1.88 ± 0.17	-1.41 ± 0.19
UAGGAGCAAUAUUACGUUUG	-3.19 ± 0.2	-1.25 ± 0.22
UAGUAGCAAUAUUACGACAU	-2.049 ± 0.018	-0.934 ± 0.034
UAGUAGCAAUAUUACGAGCU		-0.383 ± 0.21
UAGUAGCAAUAUUACGAGGA		-1.81 ± 0.46
UAGUAGCAAUAUUACGAGUU	-3.96 ± 0.28	-2.75 ± 0.23
UAGUAGCAAUAUUACGCAUG	-1.58 ± 0.092	-0.443 ± 0.095
UAGUAGCAAUAUUACGCCAA	-3.28 ± 0.29	-2.02 ± 0.24
UAGUAGCAAUAUUACGCGAA		-2.45 ± 0.41
UAGUAGCAAUAUUACGCUAG	-1.09 ± 0.23	0.812 ± 0.24
UAGUAGCAAUAUUACGGAAG		-1.83 ± 0.23
UAGUAGCAAUAUUACGGAUC	-2.87 ± 0.11	-0.854 ± 0.079
UAGUAGCAAUAUUACGGGAC	-4.2 ± 0.42	-2.27 ± 0.43
UAGUAGCAAUAUUACGGGAU	-3.3 ± 0.23	-1.97 ± 0.18
UAGUAGCAAUAUUACGGGGC	-3.84 ± 0.39	-2.68 ± 0.27
UAGUAGCAAUAUUACGGGGG	-4.33 ± 0.46	-2.8 ± 0.36
UAGUAGCAAUAUUACGGUAU	-2.55 ± 0.24	-2.39 ± 0.35
UAGUAGCAAUAUUACGGUCU	-1.79 ± 0.17	-0.706 ± 0.13

Sequence	self-splicing fitness (ln) (30 °C)	self-splicing fitness (ln) (37 °C)
UAGUAGCAAUAUUACGGUUA	-0.28 ± 0.077	0.03 ± 0.091
UAGUAGCAAUAUUACGUAUU	-4.59 ± 0.36	-1.96 ± 0.2
UAGUAGCAAUAUUACGUCAG		-0.99 ± 0.22
UAGUAGCAAUAUUACGUCGA	-1.6 ± 0.17	-1.24 ± 0.16
UAGUAGCAAUAUUACGUGAA	-3.8 ± 0.35	-1.07 ± 0.18
UAGUAGCAAUAUUACGUGAG	-1.3 ± 0.074	-1.87 ± 0.12
UAGUAGCAAUAUUACGUUCU	-1.88 ± 0.12	-0.844 ± 0.098
UAGUAGCAAUAUUACGUUUA	-1.48 ± 0.16	-1.22 ± 0.14
UAUAAGCAAUAUUACGACAA	0.0108 ± 0.14	-0.202 ± 0.17
UAUAAGCAAUAUUACGACGA	-0.51 ± 0.14	-1.36 ± 0.15
UAUAAGCAAUAUUACGACGU	-1.12 ± 0.11	-0.116 ± 0.11
UAUAAGCAAUAUUACGAUAU	-2.9 ± 0.21	-1.96 ± 0.2
UAUAAGCAAUAUUACGAUCG	-0.0932 ± 0.12	-0.23 ± 0.13
UAUAAGCAAUAUUACGCAGC	-2.5 ± 0.23	-2.43 ± 0.3
UAUAAGCAAUAUUACGCGCA	-0.204 ± 0.11	0.304 ± 0.14
UAUAAGCAAUAUUACGCGUA	-1.84 ± 0.2	-0.627 ± 0.17
UAUAAGCAAUAUUACGCUCA	-0.3 ± 0.14	0.688 ± 0.21
UAUAAGCAAUAUUACGCUUU	-4.08 ± 0.35	-2.77 ± 0.3
UAUAAGCAAUAUUACGGAUU	-3.03 ± 0.21	-1.51 ± 0.19
UAUAAGCAAUAUUACGGGGG	-3.88 ± 0.29	-3.09 ± 0.24
UAUAAGCAAUAUUACGGUAA	-2.02 ± 0.2	-0.715 ± 0.14
UAUAAGCAAUAUUACGGUCU	-1.22 ± 0.13	-1.05 ± 0.17
UAUAAGCAAUAUUACGUAAU	-3.56 ± 0.37	-0.822 ± 0.19
UAUAAGCAAUAUUACGUACU	-1.69 ± 0.16	-0.993 ± 0.11
UAUAAGCAAUAUUACGUAGA	-1.89 ± 0.11	-0.959 ± 0.13
